Test results from PMC8669613.
Where two headings read alike, the source gives them in different places.

Key:
[1] = biological target: His-tagged ASH/RhoGAP domain of OCRL (536aa-901aa) (human) (UniProt Q01968); experiment: ELISA
[2] = biological target: His-tagged ASH/RhoGAP domain of OCRL (536aa-901aa) (human) (UniProt Q01968); experiment: ELISA; remark: listed apart in the source
[3] = biological target: HA-mCherry-tagged SdhA (Legionella pneumophila); experiment: co-IP
[4] = biological target: His-tagged ASH/RhoGAP domain of OCRL (536aa-901aa) (human) (UniProt Q01968); experiment: ELISA; remark: listed apart in the source

His-tagged ASH/RhoGAP domain of OCRL (536aa-901aa) (human), sequence (Q01968 536-901): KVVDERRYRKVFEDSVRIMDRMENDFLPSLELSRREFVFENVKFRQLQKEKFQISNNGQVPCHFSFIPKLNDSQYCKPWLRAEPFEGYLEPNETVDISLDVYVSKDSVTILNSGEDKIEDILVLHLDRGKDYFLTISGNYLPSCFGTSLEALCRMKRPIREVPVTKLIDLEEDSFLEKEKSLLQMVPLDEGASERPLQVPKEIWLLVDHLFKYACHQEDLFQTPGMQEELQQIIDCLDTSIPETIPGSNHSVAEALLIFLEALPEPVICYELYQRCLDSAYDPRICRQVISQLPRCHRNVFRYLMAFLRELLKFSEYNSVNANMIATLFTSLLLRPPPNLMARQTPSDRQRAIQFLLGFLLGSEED
GFP-tagged, full-length OCRL, sequence (Q01968 whole entry): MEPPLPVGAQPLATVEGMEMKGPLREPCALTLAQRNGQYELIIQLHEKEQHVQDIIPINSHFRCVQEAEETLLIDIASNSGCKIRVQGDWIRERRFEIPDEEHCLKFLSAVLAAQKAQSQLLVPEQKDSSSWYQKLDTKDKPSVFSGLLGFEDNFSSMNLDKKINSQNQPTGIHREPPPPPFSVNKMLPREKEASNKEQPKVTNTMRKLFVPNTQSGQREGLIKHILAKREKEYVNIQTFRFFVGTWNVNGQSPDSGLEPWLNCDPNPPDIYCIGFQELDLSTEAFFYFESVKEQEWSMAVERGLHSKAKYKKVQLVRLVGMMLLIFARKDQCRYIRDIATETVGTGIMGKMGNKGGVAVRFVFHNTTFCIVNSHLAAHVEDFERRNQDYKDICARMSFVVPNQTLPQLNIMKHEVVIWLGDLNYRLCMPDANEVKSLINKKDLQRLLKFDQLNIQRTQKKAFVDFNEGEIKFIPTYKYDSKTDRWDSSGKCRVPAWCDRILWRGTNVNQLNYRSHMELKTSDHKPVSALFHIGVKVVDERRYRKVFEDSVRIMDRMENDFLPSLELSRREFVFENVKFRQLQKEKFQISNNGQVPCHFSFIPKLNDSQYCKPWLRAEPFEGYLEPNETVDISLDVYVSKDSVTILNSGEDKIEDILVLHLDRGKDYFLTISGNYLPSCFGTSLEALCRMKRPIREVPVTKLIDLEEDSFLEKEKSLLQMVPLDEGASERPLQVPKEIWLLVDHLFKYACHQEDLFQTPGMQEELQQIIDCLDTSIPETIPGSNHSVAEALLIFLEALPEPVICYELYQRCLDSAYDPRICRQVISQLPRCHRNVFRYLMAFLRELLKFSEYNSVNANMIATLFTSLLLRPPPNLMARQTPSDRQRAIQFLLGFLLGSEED
AP complex beta subunit, sequence (P63010 whole entry, one chain of several): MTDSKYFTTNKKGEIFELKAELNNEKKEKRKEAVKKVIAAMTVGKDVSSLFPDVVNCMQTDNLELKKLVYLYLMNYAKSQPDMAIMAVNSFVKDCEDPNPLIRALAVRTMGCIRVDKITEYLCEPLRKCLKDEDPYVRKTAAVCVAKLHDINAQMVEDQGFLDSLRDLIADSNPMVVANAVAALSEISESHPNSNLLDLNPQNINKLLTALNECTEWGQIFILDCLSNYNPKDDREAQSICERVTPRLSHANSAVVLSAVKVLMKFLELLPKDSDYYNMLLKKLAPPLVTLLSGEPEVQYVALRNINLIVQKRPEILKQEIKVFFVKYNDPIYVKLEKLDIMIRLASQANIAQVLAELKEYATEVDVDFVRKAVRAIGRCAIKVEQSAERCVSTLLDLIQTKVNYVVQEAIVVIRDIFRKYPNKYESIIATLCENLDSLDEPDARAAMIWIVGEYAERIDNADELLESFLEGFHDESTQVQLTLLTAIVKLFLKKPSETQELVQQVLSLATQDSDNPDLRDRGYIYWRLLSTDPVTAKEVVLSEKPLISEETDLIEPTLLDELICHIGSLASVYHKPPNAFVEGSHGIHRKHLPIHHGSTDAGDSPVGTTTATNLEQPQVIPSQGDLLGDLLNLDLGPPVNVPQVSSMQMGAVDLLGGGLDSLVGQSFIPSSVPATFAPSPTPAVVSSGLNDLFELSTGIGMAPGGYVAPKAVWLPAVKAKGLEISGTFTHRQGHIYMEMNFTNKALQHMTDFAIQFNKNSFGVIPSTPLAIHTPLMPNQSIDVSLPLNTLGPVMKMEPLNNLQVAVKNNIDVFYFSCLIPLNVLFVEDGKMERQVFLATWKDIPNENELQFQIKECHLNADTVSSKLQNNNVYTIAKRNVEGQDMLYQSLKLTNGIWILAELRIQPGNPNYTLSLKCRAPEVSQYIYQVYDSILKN

| Substance | EC50 [1] | EC50 [2] | fold co-precipitation above the HA-mCherry control [3] | EC50 [4] |
| --- | --- | --- | --- | --- |
| GST-SdhA-CBM2A (1029-1080aa) (from UniProt Q6RCQ3 1029-1080) (domain or fragment) | 0.0081 µM | 0.0272 µM |  |  |
| GFP-tagged, full-length OCRL (from UniProt Q01968 1-901) (natural protein) |  |  | 27.5 fold |  |
| AP complex beta subunit (from UniProt P63010 1-937) (natural protein) |  |  | 29.5 fold |  |
| GST-SdhA-CBM2 (1029-1260aa) (from UniProt Q6RCQ3 1029-1260) (domain or fragment) |  | 0.0807 µM |  | 0.0874 µM |
